Reference: patent US20160340402A1 (ALMAC DISCOVERY, published 2016)

Molecular target: the molecule itself
Assay: SDS PAGE and native PAGE, non-reducing against reducing conditions (self-association)

B1: full length recombinant His-tagged FKBP-L protein (variant Thr181, Gly186), N-terminal poly-histidine tag (other)
chain: MRGSHHHHHHGMASMTGGQQMGRDLYDDDDKDRWGSMETPPVNTIGEKDTSQPQQEWEKNLRENLDSVIQIRQQPRDPPTETLELEVSPDPASQILEHTQGAEKLVAELEGDSHKSHGSTSQMPEALQASDLWYCPDGSFVKKIVIRGHGLDKPKLGSCCRVLALGFPFGSGPPEGWTELTMGVGPWREETWGELIEKCLESMCQGEEAELQLPGHTGPPVGLTLASFTQGRDSWELETSEKEALAREERARGTELFRAGNPEGAARCYGRALRLLLTLPPPGPPERTVLHANLAACQLLLGQPQLAAQSCDRVLEREPGHLKALYRRGVAQAALGNLEKATADLKKVLAIDPKNRAAQEELGKVVIQGKNQDAGLAQGLRKMFG
notes: also called recombinant FKBP-L; rFKBP-L
- binding result: binds
